# System: patients with untreated advanced NSCLC
# Experiment: Phase III clinical study, safety analysis (SS population)
# [1] = SS population, double-blind stage
# [2] = compared to placebo + chemotherapy
# Protocol: This is a randomized, double-blind, placebo-controlled, multicenter, phase III clinical study for assessing the efficacy and safety of toripalimab (JS001) or placebo in combination with first-line chemotherapy in patients with untreated advanced NSCLC and exploring the population with optimal biomarker prediction.
# Toripalimab 240 mg/placebo was administered by intravenous infusion once every three weeks (Q3W) in cycles of 21 days, with treatment continued until the patients met the discontinuation criteria, i.e., recorded progressive disease, unacceptable AEs, investigator-assessed unsuitability for continued treatment, withdrawal of informed consent, 2 years of JS001 treatment, or other reasons as specified in the protocol.
# The selection of cisplatin or carboplatin was at the discretion of the investigator.
# Safety analysis set (SS): including all patients who received at least one dose of the study drug (JS001/placebo/chemotherapeutic agent).
# Safety analysis was performed in SS and crossover treatment analysis sets, where safety data from the double-blind stage of the primary study and the crossover treatment stage were analyzed separately. Safety analyses include drug exposure, compliance, adverse events, laboratory examinations, vital signs, physical examinations, electrocardiogramaminations, ECOG scores, etc.
# All safety analyses were based on the SS population (464 patients), including 308 patients in the test group and 156 patients in the control group. […] The primary safety analysis results based on the SS population in the double-blind stage of the primary study are as follows:
substance,measurement,setting,value
JS001 + standard first-line chemotherapy: toripalimab 240 mg Q3W plus albumin-bound paclitaxel+carboplatin (squamous) or pemetrexed+cisplatin/carboplatin (non-squamous),SAE: anemia,SS population,5.2%
same,SAE: bone marrow depression,SS population,1.0%
same,SAE: infectious pneumonia,SS population,4.9%
same,SAE: leukopenia,SS population,2.9%
same,SAE: neutropenia,SS population,5.5%
same,SAE: thrombocytopenia,SS population,6.8%
same,TEAE: anemia,SS population,88.3%
same,TEAE: anorexia,SS population,32.1%
same,TEAE: constipation,SS population,18.5%
same,TEAE: elevated aspartate aminotransferase,SS population,31.8%
same,TEAE: fatigue,SS population,33.4%
same,TEAE: fever,SS population,20.8%
same,TEAE: hypothyroidism,SS population,14.9%
same,TEAE: leukopenia,SS population,83.1%
same,TEAE: nausea,SS population,31.8%
same,TEAE: neutropenia,SS population,83.4%
same,TEAE: rash,SS population,20.1%
same,TEAE: thrombocytopenia,SS population,68.5%
same,proportion of SAEs judged by the investigator to be related to the treatment regimen,SS population,31.2%
same,proportion of SAEs occurring during treatment,SS population,38.6%
same,proportion of SAEs of grade 3 or higher judged by the investigator to be related to the treatment regimen,SS population,22.4%
same,proportion of TEAEs of grade 3 or higher as per CTCAE,SS population,76.3%
same,proportion of TEAEs of grade 3 or higher as per CTCAE judged by the investigator to be related to the treatment regimen,SS population,71.4%
same,proportion of patients who experienced at least 1 TEAE,[1],99.0%
same,proportion of patients who experienced at least 1 TEAE related to the treatment regimen,[1],98.1%
same,effect on chemotherapy-related toxicity (in words),[2],did not increase chemotherapy-related toxicity
same,effect on the incidence of adverse events of grade 3 or higher (in words),[2],did not increase the incidence of adverse events of grade 3 or higher

# — patent US20240218066A1, “USE OF ANTI-PD-1 ANTIBODY IN COMBINATION WITH FIRST-LINE CHEMOTHERAPY IN TREATMENT OF ADVANCED NON-SMALL CELL LUNG CANCER” (SHANGHAI JUNSHI BIOSCIENCES CO., LTD., priority 2021, published 2024)
